Patent US20260226142A1

Target: Cys-HLA (Staphylococcus aureus)

B1: Bm28H12 (VHH)
VHH: QVQLVESGGSVVQAGGSLRLSCTASGRNFNSYAMGWFRRPPGEQRDFIAAIIRSTGKTTYADSDSVKGRFTISKDSSGNTVYLQMNNLKPEDTAIYYCAGGDAGPYAFGYDYWGQGTQVTVSS
Kd: 100 pM
